From the supplement of paper PMC7877785
± gives the uncertainty stated by the source.

Assay: self-splicing fitness, log relative to wild type (ln ratio); higher = more splicing; Tetrahymena group I intron in knt gene, E. coli kanamycin selection, DiMSum; sequences stand for … in CUCUCU…GGAGGGAAAAGUUAUCAGGCAUGCACCUGGUAGCUAGUCUUUAAACCAAUAGAUUGCAUCGGUUUAAAAGGCAAGACCGUCAAAUUGCGGGAAAGGGGUCAACAGCCGUUCAGUACCAAGUCUCAGGGGAAACUUUGAGAUGGCCUUGCAAAGGGUAUGGUAAUAAGCUGACGGACAUGGUCCUAACCACGCAGCCAAGUCCUAAGUCAACAGAUCUUCUGUUGAUAUGGAUGCAGUUCACAGACUAAAUGUCGGUCGGGGAAGAUGUAUUCUUCUCAUAAGAUAUAGUCGGACCUCUCCUUAAUGGGAGCUAGCGGAUGAAGUGAUGCAACACUGGAGCCGCUGGGAACUAAUUUGUAUGCGAAAGUAUAUUGAUUAGUUUUGGAGUACUCGUGGUCG
Method in brief: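 A randomised library covering all eight P1ex-region intron nucleotides was built with the intron in the knt kanamycin-resistance gene on pET-22b(+) and held in E. coli BL21(DE3). Cells were grown overnight at 37°C or 30°C on LB agar, with or without 25 μg/mL kanamycin, plus 100 μg/mL carbenicillin, 50 μM IPTG and 0.2% rhamnose, and pooled colonies were amplicon-sequenced on an Illumina HiSeq 2500. DiMSum fitness is the error-weighted combination of wild-type-normalised replicate fold changes, kanamycin versus none.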

Sequence | self-splicing fitness (ln) (30 °C) | self-splicing fitness (ln) (37 °C)
GGCAAGCAAUAUUACGGAGU | -2.62 ± 0.12 | -0.542 ± 0.1
UGGCAGCAAUAUUACGAUCU | -0.344 ± 0.11 | -0.112 ± 0.11
UGUAAGCAAUAUUACGCACU | -0.554 ± 0.094 | -0.349 ± 0.12
GUUAAGCAAUAUUACGCUAG | -1.64 ± 0.11 | 0.113 ± 0.14
UGCGAGCAAUAUUACGUUUU | -5.01 ± 0.45 | -3.25 ± 0.24
UGGUAGCAAUAUUACGUUUA | -1.58 ± 0.11 | -0.847 ± 0.1
AUUUAGCAAUAUUACGACCU | 0.0405 ± 0.29 | 0.114 ± 0.29
GAUCAGCAAUAUUACGUAGC | -0.999 ± 0.11 | -0.402 ± 0.12
AAGCAGCAAUAUUACGCCAC | -2.93 ± 0.22 | -2.72 ± 0.29
AUGGAGCAAUAUUACGAAGA |  | -1.17 ± 0.33
UCCUAGCAAUAUUACGACUU | -3.74 ± 0.46 | -2.74 ± 0.3
AUUCAGCAAUAUUACGCCUG | -1.95 ± 0.12 | -0.706 ± 0.19
UUAGAGCAAUAUUACGCUUC | -2.81 ± 0.32 | 
GUCUAGCAAUAUUACGAGCA | -1.29 ± 0.24 | -0.906 ± 0.24
CAACAGCAAUAUUACGGGAC | -4.18 ± 0.17 | -2.99 ± 0.16
UGCCAGCAAUAUUACGAAGA | -2.87 ± 0.18 | -1.33 ± 0.14
ACGGAGCAAUAUUACGAUGG | -3.63 ± 0.32 | -0.86 ± 0.27
ACACAGCAAUAUUACGUGUA | -3.54 ± 0.11 | -2.06 ± 0.085
ACCCAGCAAUAUUACGUACA | -1.85 ± 0.087 | -0.804 ± 0.085

Sequence | self-splicing fitness (ln) (30 °C) | self-splicing fitness (ln) (37 °C)
GUUUAGCAAUAUUACGGCAG | -2.12 ± 0.26 | -1.66 ± 0.38
GCGAAGCAAUAUUACGCGCG | -2.34 ± 0.17 | -1.28 ± 0.22
CCCUAGCAAUAUUACGGCGA | -2.43 ± 0.13 | -2.19 ± 0.17
UUACAGCAAUAUUACGUGCA | -1.27 ± 0.055 | -0.148 ± 0.063
UAAAAGCAAUAUUACGAUUU | -1.36 ± 0.11 | -0.59 ± 0.11
AGCAAGCAAUAUUACGGGAA | -2.65 ± 0.14 | -1.03 ± 0.1
ACCGAGCAAUAUUACGAUGU | -2.71 ± 0.12 | -1.86 ± 0.12
UGACAGCAAUAUUACGACUU | -0.452 ± 0.068 | 0.389 ± 0.091
UUAUAGCAAUAUUACGGAAC | -3.09 ± 0.36 | -1.71 ± 0.44
CCCGAGCAAUAUUACGGUAU | -3.43 ± 0.22 | -3.01 ± 0.4
UAGCAGCAAUAUUACGCGUU | -2.72 ± 0.1 | -1.24 ± 0.11
GGGUAGCAAUAUUACGCGUU | -0.304 ± 0.091 | -0.0887 ± 0.12
AGGCAGCAAUAUUACGUCCU | -3.02 ± 0.26 | -1.29 ± 0.37
GAGCAGCAAUAUUACGAACU | -1.17 ± 0.12 | -0.227 ± 0.17
UGGCAGCAAUAUUACGGCCC | -1.18 ± 0.15 | -0.287 ± 0.21
CUGCAGCAAUAUUACGUUAG | -2.97 ± 0.1 | -1.19 ± 0.1
AGUGAGCAAUAUUACGAAUC |  | -1.49 ± 0.38
AAGUAGCAAUAUUACGGGGG | -2.88 ± 0.26 | -3.2 ± 0.35
UGAGAGCAAUAUUACGGGUG | -3.65 ± 0.19 | -2.11 ± 0.19
